Assay results: the MegaScale stability set (Tsuboyama et al. 2023)

B1: EEHEE_rd4_0363 (parent)
chain: VTVDIKGMEYHFDNPEEAKKFAERMAKELGGELKVENGTLKVE

Variants of: B1
Assay: folding stability dG (cDNA display proteolysis); higher = more stable
Settings: PBS, room temperature

Point of comparison: VTVDIKGMEYHFDNPEEAKKFNERMAKELGGELKVENGTLKVE, “folding stability dG” value 0.039 kcal/mol. Against it:
- VTVDIKGMEYHFDNPEEAKKFAIRMAKELGGELKVENGTLKVE — higher, 1.87 kcal/mol
- VTVDIKGMEYNFDNPEEAKKFAERMAKELGGELKVENGTLKVE — higher, 1.32 kcal/mol
- VTVDIKGMEYWFDNPEEAKKFAERMAKELGGELKVENGTLKVE — higher, 2.26 kcal/mol
- VTVDIKGMEYQFDNPEEAKKFAERMAKELGGELKVENGTLKVE — higher, 1.39 kcal/mol
- VTVDIKGMEYHFDNPEEAKKFAERMAKELGGELKVENVTLKVE — higher, 0.725 kcal/mol
- VTVDIKGMEYHFDNPEEAKKFAERMAKELGGELKVENDTLKVE — higher, 1.3 kcal/mol
- VTVDIKGMEYHFDNPEEAKKFAERMAKELGGELKVENATLKVE — higher, 1.13 kcal/mol
- VTVDIKGMEYHFDNPEEAKKFAERMAKELGGELKVENNTLKVE — higher, 1.68 kcal/mol
- VTVDIKGMEYHFDNPEEAEKFAERMAKELGGELKVENGTLKVE — higher, 1.32 kcal/mol
- VTVDIKGMEYHFDNPEEAVKFAERMAKELGGELKVENGTLKVE — higher, 1.96 kcal/mol
- VTVDIKGMEYHFDNPEEARKFAERMAKELGGELKVENGTLKVE — higher, 2.65 kcal/mol
- VTVDIKGMEYHFDNPEEAWKFAERMAKELGGELKVENGTLKVE — higher, 3.27 kcal/mol
- VTVDIKGMEYHFDNPEEADKFAERMAKELGGELKVENGTLKVE — higher, 0.524 kcal/mol
- VTVDIKKMEYHFDNPEEAKKFAERMAKELGGELKVENGTLKVE — higher, 0.294 kcal/mol
- VTVDIKGMEYHFDNPREAKKFAERMAKELGGELKVENGTLKVE — higher, 1.27 kcal/mol
- VTVDIKGMEYHFDNPNEAKKFAERMAKELGGELKVENGTLKVE — higher, 1.41 kcal/mol
- VTVDIKGMEYHFDNPFEAKKFAERMAKELGGELKVENGTLKVE — higher, 1.7 kcal/mol
- VTVDIKGMEYHFDNPTEAKKFAERMAKELGGELKVENGTLKVE — higher, 1.7 kcal/mol
- VTVDIKGMEYHFDDPEEAKKFAERMAKELGGELKVENGTLKVE — higher, 2.33 kcal/mol
- VTVDIKGMEYHFDWPEEAKKFAERMAKELGGELKVENGTLKVE — higher, 0.812 kcal/mol
- VTVDIKGMEYHFDGPEEAKKFAERMAKELGGELKVENGTLKVE — higher, 1.08 kcal/mol
- VTTDIKGMEYHFDNPEEAKKFAERMAKELGGELKVENGTLKVE — higher, 0.19 kcal/mol
- VTVDIKGPEYHFDNPEEAKKFAERMAKELGGELKVENGTLKVE — lower, -0.136 kcal/mol
- VTVDIKGHEYHFDNPEEAKKFAERMAKELGGELKVENGTLKVE — higher, 1.99 kcal/mol
- VTVDIKGNEYHFDNPEEAKKFAERMAKELGGELKVENGTLKVE — higher, 1.58 kcal/mol
- VTVDIKGMEYHFDNPEEAKKFTERMAKELGGELKVENGTLKVE — higher, 0.578 kcal/mol
- VTVDIKGMEYHFDNPEEAKKFSERMAKELGGELKVENGTLKVE — higher, 0.388 kcal/mol
- VTVDIKGMEYHFDNPEEAKKFRERMAKELGGELKVENGTLKVE — higher, 1.05 kcal/mol
- VTVDIKGMEYHFDNPEEAKKFVERMAKELGGELKVENGTLKVE — higher, 1.26 kcal/mol
- VTVDIKGMECHFDNPEEAKKFAERMAKELGGELKVENGTLKVE — higher, 1.77 kcal/mol
- VTVDIKGMEPHFDNPEEAKKFAERMAKELGGELKVENGTLKVE — lower, -0.055 kcal/mol
- VTVDIKGMEVHFDNPEEAKKFAERMAKELGGELKVENGTLKVE — higher, 0.768 kcal/mol
- VTVDIKGMEGHFDNPEEAKKFAERMAKELGGELKVENGTLKVE — lower, -0.912 kcal/mol
- VTVCIKGMEYHFDNPEEAKKFAERMAKELGGELKVENGTLKVE — higher, 3.39 kcal/mol
- VTVVIKGMEYHFDNPEEAKKFAERMAKELGGELKVENGTLKVE — higher, 3.47 kcal/mol
- VTVDSKGMEYHFDNPEEAKKFAERMAKELGGELKVENGTLKVE — higher, 0.289 kcal/mol
- VTVDPKGMEYHFDNPEEAKKFAERMAKELGGELKVENGTLKVE — lower, -0.167 kcal/mol
- VTVDRKGMEYHFDNPEEAKKFAERMAKELGGELKVENGTLKVE — lower, 0.036 kcal/mol
- VTVDIKGMEYHFDNQEEAKKFAERMAKELGGELKVENGTLKVE — higher, 1.75 kcal/mol
- VTVDIKGMEYHFDNWEEAKKFAERMAKELGGELKVENGTLKVE — higher, 3.73 kcal/mol
- VTVDIKGMEYHFDNMEEAKKFAERMAKELGGELKVENGTLKVE — higher, 2.86 kcal/mol
- VTVDIKGMEYHFPNPEEAKKFAERMAKELGGELKVENGTLKVE — higher, 1.6 kcal/mol
- VTVDIKGMEYHFTNPEEAKKFAERMAKELGGELKVENGTLKVE — higher, 1.93 kcal/mol
- VTVDIKGMEYHFANPEEAKKFAERMAKELGGELKVENGTLKVE — higher, 1.95 kcal/mol
- VTVDIKGMEYHFDNPEEAKKFAERMAKELGGELLVENGTLKVE — higher, 1.77 kcal/mol
- VTVDIKGMEYHFDNPEEAKKFAERMAKELGGELPVENGTLKVE — higher, 0.802 kcal/mol
- VTVDIKGMEYHFDNPEEAKKFAERMAKELGGELTVENGTLKVE — higher, 1.9 kcal/mol
- VTVDIKGMEYHFDNPEEIKKFAERMAKELGGELKVENGTLKVE — lower, -0.262 kcal/mol
- VTVDIKGMEYHFDNPEEKKKFAERMAKELGGELKVENGTLKVE — lower, -0.683 kcal/mol
- VTVDIKGMEYHFDNPEEAKKFAEIMAKELGGELKVENGTLKVE — higher, 1.5 kcal/mol
- VTVDIKGMEYHFDNPEEAKKFAETMAKELGGELKVENGTLKVE — higher, 1.75 kcal/mol
- HTVDIKGMEYHFDNPEEAKKFAERMAKELGGELKVENGTLKVE — higher, 1.63 kcal/mol
- ETVDIKGMEYHFDNPEEAKKFAERMAKELGGELKVENGTLKVE — higher, 0.523 kcal/mol
- GTVDIKGMEYHFDNPEEAKKFAERMAKELGGELKVENGTLKVE — higher, 0.889 kcal/mol
- VTVDIKGMEYHFDNPEIAKKFAERMAKELGGELKVENGTLKVE — higher, 1.16 kcal/mol
- VTVDIKGMEYHFDNPETAKKFAERMAKELGGELKVENGTLKVE — higher, 1.23 kcal/mol
- VTVDIKGMEYHFDNPEMAKKFAERMAKELGGELKVENGTLKVE — higher, 1.39 kcal/mol
- VTVDIKGMEYHFDNPEEAKKFAERKAKELGGELKVENGTLKVE — higher, 1.37 kcal/mol
